Source: PMC2553570
Like-named read-outs stand apart in the source and are kept apart here.

What was measured:
Experiment in all cases: EMSA
[1] = molecular target: T1, Ku70DM/80DM (human, UniProt P12956;P13010 1-609;1-732, K357A;K358A;K238A;K239A)
[2] = molecular target: T2, Ku70DM/80TM (human, UniProt P12956;P13010 1-609;1-732, K357A;K358A;K233A;K238A;K239A)
[3] = molecular target: T3, Ku70DM/80 (human, UniProt P12956;P13010 1-609;1-732, K358A;Ku70:K357A)
[4] = molecular target: Ku70/80DM (human, UniProt P12956;P13010 1-609;1-732, K239A;Ku80:K238A)
[5] = molecular target: T4, Ku70/80TM (human, UniProt P12956;P13010 1-609;1-732, K238A;K239A;Ku80:K233A)
[6] = molecular target: T5, Ku70/80 wild-type (human, UniProt P12956;P13010 1-609;1-732)
[7] = molecular target: T1, Ku70DM/80DM; remark: listed apart in the source
[8] = molecular target: T2, Ku70DM/80TM; remark: listed apart in the source
[9] = molecular target: T3, Ku70DM/80; remark: listed apart in the source
[10] = molecular target: T4, Ku70/80TM; remark: listed apart in the source
[11] = molecular target: T5, Ku70/80 wild-type; remark: listed apart in the source

Measured: binding result

T5 sequence (P12956 whole entry, chain 1 of 2): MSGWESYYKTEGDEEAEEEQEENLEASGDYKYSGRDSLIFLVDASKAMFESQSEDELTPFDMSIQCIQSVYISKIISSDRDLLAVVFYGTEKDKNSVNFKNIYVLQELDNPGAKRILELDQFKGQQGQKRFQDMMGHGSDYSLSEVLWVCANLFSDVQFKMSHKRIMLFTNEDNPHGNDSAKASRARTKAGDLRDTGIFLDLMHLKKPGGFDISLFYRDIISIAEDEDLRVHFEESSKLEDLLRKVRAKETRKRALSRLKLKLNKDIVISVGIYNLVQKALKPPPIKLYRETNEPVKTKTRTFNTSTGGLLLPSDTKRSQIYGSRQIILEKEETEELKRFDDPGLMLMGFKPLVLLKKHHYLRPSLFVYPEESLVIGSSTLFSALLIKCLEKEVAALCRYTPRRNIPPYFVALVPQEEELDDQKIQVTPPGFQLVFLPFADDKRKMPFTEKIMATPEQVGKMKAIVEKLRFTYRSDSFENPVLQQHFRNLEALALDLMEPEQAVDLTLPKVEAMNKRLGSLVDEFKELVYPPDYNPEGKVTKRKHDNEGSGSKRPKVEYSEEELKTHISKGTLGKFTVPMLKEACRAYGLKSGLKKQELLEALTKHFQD
T5 sequence (P13010 whole entry, chain 2 of 2): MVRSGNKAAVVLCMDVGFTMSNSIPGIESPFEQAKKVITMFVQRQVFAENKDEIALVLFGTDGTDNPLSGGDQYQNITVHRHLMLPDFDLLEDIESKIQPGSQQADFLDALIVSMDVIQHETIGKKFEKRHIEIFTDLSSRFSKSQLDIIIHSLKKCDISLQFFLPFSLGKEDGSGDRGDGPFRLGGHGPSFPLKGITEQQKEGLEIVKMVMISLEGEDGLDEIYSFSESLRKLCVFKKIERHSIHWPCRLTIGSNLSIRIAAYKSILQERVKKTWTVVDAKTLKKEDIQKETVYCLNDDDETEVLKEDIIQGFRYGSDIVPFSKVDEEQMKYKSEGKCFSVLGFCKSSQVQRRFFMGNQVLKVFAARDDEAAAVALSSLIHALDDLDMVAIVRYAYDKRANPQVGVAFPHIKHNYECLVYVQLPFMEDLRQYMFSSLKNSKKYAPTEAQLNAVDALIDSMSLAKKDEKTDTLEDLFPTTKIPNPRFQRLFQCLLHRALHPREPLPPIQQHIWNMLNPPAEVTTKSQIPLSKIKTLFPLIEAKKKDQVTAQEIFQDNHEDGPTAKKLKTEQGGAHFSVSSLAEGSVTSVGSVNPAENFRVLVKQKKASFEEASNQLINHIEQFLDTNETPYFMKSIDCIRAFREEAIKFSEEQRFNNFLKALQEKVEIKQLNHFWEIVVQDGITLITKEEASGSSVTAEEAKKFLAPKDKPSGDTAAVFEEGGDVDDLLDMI
T4 sequence (P12956 whole entry, stated change not applied, chain 1 of 2): as the sequence (P12956 whole entry, chain 1 of 2) above
T4 sequence (P13010 whole entry K238A/K239A, chain 2 of 2): as the sequence (P13010 whole entry, chain 2 of 2) above, with K238A, K239A counted along it
T3 sequence (P12956 whole entry K358A, chain 1 of 2): as the sequence (P12956 whole entry, chain 1 of 2) above, with K358A counted along it
T3 sequence (P13010 whole entry, stated change not applied, chain 2 of 2): as the sequence (P13010 whole entry, chain 2 of 2) above
T1 sequence (P12956 whole entry K357A/K358A, chain 1 of 2): as the sequence (P12956 whole entry, chain 1 of 2) above, with K357A, K358A counted along it
T1 sequence (P13010 whole entry K238A/K239A, chain 2 of 2): as the sequence (P13010 whole entry, chain 2 of 2) above, with K238A, K239A counted along it
T2 sequence (P12956 whole entry K357A/K358A, chain 1 of 2): as the sequence (P12956 whole entry, chain 1 of 2) above, with K357A, K358A counted along it
T2 sequence (P13010 whole entry K233A/K238A/K239A, chain 2 of 2): as the sequence (P13010 whole entry, chain 2 of 2) above, with K233A, K238A, K239A counted along it
Sequence of Ku70/80DM (P12956 whole entry, stated change not applied, chain 1 of 2): as the sequence (P12956 whole entry, chain 1 of 2) above
Sequence of Ku70/80DM (P13010 whole entry K239A, chain 2 of 2): as the sequence (P13010 whole entry, chain 2 of 2) above, with K239A counted along it

B1: 48-bp duplex (two-Ku) (dsDNA)
DNA 1: CTGAGAAAACTGTGCGTCTTCGCGGCAATTGAGAGGCATTCCATTCAC
DNA 2: GTGAATGGAATGCCTCTCAATTGCCGCGAAGACGCACAGTTTTCTCAG
binds: [1] | [2] | [3] | [4] | [5] | [6]

B2: one-Ku duplex with unpaired region (dsDNA)
DNA 1: GTTTTTAGTTTATTGGGCGCG
DNA 2: CGCGCCCAGCTTTCCCAGCTAATAAACTAAAAAC
binds: [7] | [8] | [9] | [10] | [11]
